According to US20260242482A1 (ONO PHARMACEUTICAL, published 2026):
Numbering of substitutions follows the chain as printed. Numbers in names are those of the source. Each block holds one binder with its values, some of them ahead of it.

Experiments:
[1] = target: T1, human PD-L1 (human, UniProt Q9NZQ7 19-290); assay: flow cytometry; DOdKO-hPD-L1/hCD80 cells pretreated with 30 ug/mL TKMF5, stained with human PD-1-EC
T1 construct: Expressed on IIAdL1 or DOdKO cells; also called hPD-L1

[2] = target: T1, human PD-L1; assay: co-immunoprecipitation, IIAdL1 cells expressing the human molecules, western blot
[3] = target: T1, human PD-L1; assay: flow cytometry; PD-1-EC staining of IIAdL1 cells (FIG. 29)
[4] = target: T1, human PD-L1; assay: as described for the mutants of Test 4; no separate experiment told for the double mutant
[5] = target: T2, mouse CD80 (mouse, UniProt Q00609 38-306); assay: flow cytometry, IIAdL1 cells expressing CD80 alone, soluble PD-1-EC
T2 construct: Overexpressed on IIAdL1 cells or DOdKO cells; also called mCD80
T2 sequence: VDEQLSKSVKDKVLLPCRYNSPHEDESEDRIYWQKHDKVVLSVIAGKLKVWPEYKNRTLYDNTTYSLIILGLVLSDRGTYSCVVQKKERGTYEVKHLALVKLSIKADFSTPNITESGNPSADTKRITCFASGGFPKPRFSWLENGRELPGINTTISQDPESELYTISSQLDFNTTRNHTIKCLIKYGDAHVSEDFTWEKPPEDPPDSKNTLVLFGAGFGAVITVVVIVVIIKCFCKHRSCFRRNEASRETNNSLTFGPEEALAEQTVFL

[6] = target: T3, mouse PD-L1 (mouse, UniProt Q9EP73 19-290); assay: flow cytometry; DOdKO-mPD-L1/mCD80 cells pretreated with 10 ug/ml TKMG48 or control IgG, stained with mouse PD-1-EC; (TKMG48 treated group-control group)/(control IgG group-control group)
T3 construct: Overexpressed on IIAdL1 cells or DOdKO cells; also called mPD-L1; CD274
T3 sequence (Q9EP73 19-290 limits assumed): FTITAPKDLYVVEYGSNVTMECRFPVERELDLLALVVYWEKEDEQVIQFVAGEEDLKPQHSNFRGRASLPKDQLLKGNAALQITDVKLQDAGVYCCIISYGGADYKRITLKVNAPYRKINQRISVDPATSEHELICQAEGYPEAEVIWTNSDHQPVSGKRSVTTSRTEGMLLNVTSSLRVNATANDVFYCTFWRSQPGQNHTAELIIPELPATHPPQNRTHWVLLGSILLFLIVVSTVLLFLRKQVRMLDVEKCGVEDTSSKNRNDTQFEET

[7] = target: T3, mouse PD-L1; assay: as described for the mutants of Test 3; no separate experiment told for the double mutant
[8] = target: T3, mouse PD-L1; assay: as described for the mutants of Test 3 (PD-1-EC staining of cells co-expressing PD-L1)

T1 sequence (Q9NZQ7 19-290 limits assumed): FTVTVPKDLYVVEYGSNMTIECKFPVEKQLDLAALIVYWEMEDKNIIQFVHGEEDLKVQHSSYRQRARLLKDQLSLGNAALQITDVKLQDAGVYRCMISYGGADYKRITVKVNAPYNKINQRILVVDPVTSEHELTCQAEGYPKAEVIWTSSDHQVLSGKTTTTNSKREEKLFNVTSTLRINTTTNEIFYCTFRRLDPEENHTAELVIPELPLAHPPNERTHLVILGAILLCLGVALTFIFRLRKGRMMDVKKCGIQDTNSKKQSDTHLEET

ratio of cells that bound to PD-1-EC [1]: ~50%
B1: human PD-1-EC (receptor)
chain: LDSPDRPWNPPTFSPALLVVTEGDNATFTCSFSNTSESFVLNWYRMSPSNQTDKLAAFPEDRSQPGQDCRFRVTQLPNGRDFHMSVVRARRNDSGTYLCGAISLAPKAQIKESLRAELRVTERRAEVPTAHPSPSPRPAGQFQDYKDDDDK
notes: domain: five-stranded coiled coil domain; also called human PD-1 extracellular region soluble chimeric protein; hPD-1; not shown: five-stranded coiled coil domain of cartilage oligomer matrix protein (Terskikh et al. 1997), fused to the C-terminus

binding result [2]: binds
B2: human CD80 (ligand)
chain: VIHVTKEVKEVATLSCGHNVSVEELAQTRIYWQKEKKMVLTMMSGDMNIWPEYKNRTIFDITNNLSIVILALRPSDEGTYECVVLKYEKDAFKREHLAEVTLSVKADFPTPSISDFEIPTSNIRRIICSTSGGFPEPHLSWLENGEELNAINTTVSQDPETELYAVSSKLDFNMTTNHSFMCLIKYGHLRVNQTFNWNTTKQEHFPDNLLPSWAITLISVNGIFVICCLTYCFAPRCRERRRNERLRRESVRPV
notes: Expressed on IIAdL1, DOdKO or DOdPD cells; also called hCD80

binding result [3]: no binding
B3: human CD80L104E mutant (ligand)
chain: B2 chain with L70E

binding result [4]: no binding
B4: human CD80 mutant (having I92E and L104E mutations) lacking the ability to bind to human PD-L1 (ligand)
chain: B2 chain with I58E, L70E

binding result [3]: no binding
B5: human CD80I92E (ligand)
chain: B2 chain with I58E

binding result [5]: no binding
amount of binding (mean fluorescence intensity) after TKMG48 pretreatment relative to control IgG pretreatment [6]: ~10.1 times
B6: soluble mouse PD-1 extracellular region (PD-1-EC) protein (receptor)
chain: LEVPNGPWRSLTFYPAWLTVSEGANATFTCSLSNWSEDLMLNWNRLSPSNQTEKQAAFCNGLSQPVQDARFQIIQLPNRHDFHMNILDTRRNDSGIYLCGAISLHPKAKIEESPGAELVVTERILETSTRYPSPSPKPEGRFQDYKDDDDK
notes: domain: five-stranded coiled coil domain; Soluble chimeric protein from 293T or Plat-E culture supernatant; also called mouse PD-1-EC; mPD-1; not shown: five-stranded coiled coil domain of cartilage oligomer matrix protein (Terskikh et al. 1997), fused to the C-terminus

binding result [7]: no binding
B7: mouse CD80 with the L96E and L107E mutations (ligand)
chain: T2 sequence with L59E, L70E

binding result [8]: no binding
B8: mouse CD80L107E (ligand)
chain: T2 sequence with L70E
notes: also called L107E mutant

binding result [8]: no binding
B9: mouse CD80 with the L96E mutation (ligand)
chain: T2 sequence with L59E
notes: also called CD80 L96E
